In patent publication US20230295327A1 (published 2023):
Where two headings read alike, the source gives them in different places.

How the values were obtained:
[1] = target: T1, IL-12 receptor beta 1-biotin (IL-12Rβ1-Biotin; Acrobiosystems) (human, UniProt P42701 24-545, biotin (site not stated)); test: ELISA; control, flat curve
[2] = target: T2, recombinant human CD20 (human, UniProt P11836 1-297); test: SPR
T2 chain: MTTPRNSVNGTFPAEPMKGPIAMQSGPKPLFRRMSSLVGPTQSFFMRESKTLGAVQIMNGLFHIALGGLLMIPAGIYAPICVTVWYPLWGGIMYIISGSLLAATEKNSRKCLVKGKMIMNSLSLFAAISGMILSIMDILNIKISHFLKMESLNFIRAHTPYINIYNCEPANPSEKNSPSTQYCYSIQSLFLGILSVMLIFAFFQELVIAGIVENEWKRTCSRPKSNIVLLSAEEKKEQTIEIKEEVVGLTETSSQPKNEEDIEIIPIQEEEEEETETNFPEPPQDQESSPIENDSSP

[3] = target: T1, IL-12 receptor beta 1-biotin …; test: ELISA
[4] = target: T2, recombinant human CD20; test: SPR
[5] = target: T2, recombinant human CD20; test: SPR

B1: Rituximab (anti-hu CD20 monoclonal antibody) (antibody, V domains shown)
VH: QVQLQQPGAELVKPGASVKMSCKASGYTFTSYNMHWVKQTPGRGLEWIGAIYPGNGDTSYNQKFKGKATLTADKSSSTAYMQLSSLTSEDSAVYYCARSTYYGGDWYFNVWGAGTTVTVSA
VL: QIVLSQSPAILSASPGEKVTMTCRASSSVSYIHWFQQKPGSSPKPWIYATSNLASGVPVRFSGSGSGTSYSLTISRVEAEDAATYYCQQWTSNPPTFGGGTKLEIKR
- EC50 [1]: 25.1 nM

B2: T2.01 (anti-hu CD20/hu IL-12, hu IgG1) (bispecific antibody)
heavy: not shown
light: QIVLSQSPAILSASPGEKVTMTCRASSSVSYIHWFQQKPGSSPKPWIYATSNLASGVPVRFSGSGSGTSYSLTISRVEAEDAATYYCQQWTSNPPTFGGGTKLEIKRTVAAPSVFIFPPSDEQLKSGTASVVCLLNNFYPREAKVQWKVDNALQSGNSQESVTEQDSKDSTYSLSSTLTLSKADYEKHKVYACEVTHQGLSSPVTKSFNRGEC
chain: not shown
- Kd [2]: 5.84 nM
- EC50 [3]: 16.2 nM

B3: T2.10 (anti-hu CD20/anti-hu CD20-hu IL-12, hu IgG1 (2 + 1)) (antibody)
heavy 1: not shown
heavy 2: not shown
light: QIVLSQSPAILSASPGEKVTMTCRASSSVSYIHWFQQKPGSSPKPWIYATSNLASGVPVRFSGSGSGTSYSLTISRVEAEDAATYYCQQWTSNPPTFGGGTKLEIKRTVAAPSVFIFPPSDEQLKSGTASVVCLLNNFYPREAKVQWKVDNALQSGNSQESVTEQDSKDSTYSLSSTLTLSKADYEKHKVYACEVTHQGLSSPVTKSFNRGEC
- Kd [4]: 16.6 nM

B4: T2.06 (anti-hu CD20/hu IL-12, hu IgG1 (2 + 1, HC scFv)) (bispecific antibody)
heavy: not shown
light: QIVLSQSPAILSASPGEKVTMTCRASSSVSYIHWFQQKPGSSPKPWIYATSNLASGVPVRFSGSGSGTSYSLTISRVEAEDAATYYCQQWTSNPPTFGGGTKLEIKRTVAAPSVFIFPPSDEQLKSGTASVVCLLNNFYPREAKVQWKVDNALQSGNSQESVTEQDSKDSTYSLSSTLTLSKADYEKHKVYACEVTHQGLSSPVTKSFNRGEC
chain: not shown
- Kd [5]: 11.5 nM

B5: T2.07 (anti-hu CD20/hu IL-12 mut2, hu IgG1 (2 + 1, HC scFv)) (bispecific antibody)
heavy: not shown
light: QIVLSQSPAILSASPGEKVTMTCRASSSVSYIHWFQQKPGSSPKPWIYATSNLASGVPVRFSGSGSGTSYSLTISRVEAEDAATYYCQQWTSNPPTFGGGTKLEIKRTVAAPSVFIFPPSDEQLKSGTASVVCLLNNFYPREAKVQWKVDNALQSGNSQESVTEQDSKDSTYSLSSTLTLSKADYEKHKVYACEVTHQGLSSPVTKSFNRGEC
chain: not shown
- Kd [5]: 2.84 nM

B6: T2.02 (anti-hu CD20/hu IL-12 mut1, hu IgG1) (bispecific antibody)
heavy: not shown
light: QIVLSQSPAILSASPGEKVTMTCRASSSVSYIHWFQQKPGSSPKPWIYATSNLASGVPVRFSGSGSGTSYSLTISRVEAEDAATYYCQQWTSNPPTFGGGTKLEIKRTVAAPSVFIFPPSDEQLKSGTASVVCLLNNFYPREAKVQWKVDNALQSGNSQESVTEQDSKDSTYSLSSTLTLSKADYEKHKVYACEVTHQGLSSPVTKSFNRGEC
chain: not shown
- Kd [2]: 7.2 nM
- EC50 [3]: 17.6 nM

B7: T2.11 (anti-hu CD20/anti-hu CD20-hu IL-12 mut2, hu IgG1 (2 + 1)) (antibody)
heavy 1: not shown
heavy 2: not shown
light: QIVLSQSPAILSASPGEKVTMTCRASSSVSYIHWFQQKPGSSPKPWIYATSNLASGVPVRFSGSGSGTSYSLTISRVEAEDAATYYCQQWTSNPPTFGGGTKLEIKRTVAAPSVFIFPPSDEQLKSGTASVVCLLNNFYPREAKVQWKVDNALQSGNSQESVTEQDSKDSTYSLSSTLTLSKADYEKHKVYACEVTHQGLSSPVTKSFNRGEC
- Kd [4]: 1390 nM

B8: T2.09 (anti-hu CD20/hu IL-12 mut2, hu IgG1 (2 + 1, LC scFv)) (bispecific antibody)
heavy: not shown
light: QIVLSQSPAILSASPGEKVTMTCRASSSVSYIHWFQQKPGSSPKPWIYATSNLASGVPVRFSGSGSGTSYSLTISRVEAEDAATYYCQQWTSNPPTFGGGTKLEIKRTVAAPSVFIFPPSDEQLKSGTASVVCLLNNFYPREAKVQWKVDNALQSGNSQESVTEQDSKDSTYSLSSTLTLSKADYEKHKVYACEVTHQGLSSPVTKSFNRGECGGGGSGGGGSGGGGSQVQLQQPGAELVKPGASVKMSCKASGYTFTSYNMHWVKQTPGRGLEWIGAIYPGNGDTSYNQKFKGKATLTADKSSSTAYMQLSSLTSEDSAVYYCARSTYYGGDWYFNVWGAGTTVTVSAGGGGSGGGGSGGGGSGGGGSQIVLSQSPAILSASPGEKVTMTCRASSSVSYIHWFQQKPGSSPKPWIYATSNLASGVPVRFSGSGSGTSYSLTISRVEAEDAATYYCQQWTSNPPTFGGGTKLEIK
chain: not shown
- Kd [4]: 3.67 nM

B9: T2.08 (anti-hu CD20/hu IL-12, hu IgG1 (2 + 1, LC scFv)) (bispecific antibody)
heavy: not shown
light: QIVLSQSPAILSASPGEKVTMTCRASSSVSYIHWFQQKPGSSPKPWIYATSNLASGVPVRFSGSGSGTSYSLTISRVEAEDAATYYCQQWTSNPPTFGGGTKLEIKRTVAAPSVFIFPPSDEQLKSGTASVVCLLNNFYPREAKVQWKVDNALQSGNSQESVTEQDSKDSTYSLSSTLTLSKADYEKHKVYACEVTHQGLSSPVTKSFNRGECGGGGSGGGGSGGGGSQVQLQQPGAELVKPGASVKMSCKASGYTFTSYNMHWVKQTPGRGLEWIGAIYPGNGDTSYNQKFKGKATLTADKSSSTAYMQLSSLTSEDSAVYYCARSTYYGGDWYFNVWGAGTTVTVSAGGGGSGGGGSGGGGSGGGGSQIVLSQSPAILSASPGEKVTMTCRASSSVSYIHWFQQKPGSSPKPWIYATSNLASGVPVRFSGSGSGTSYSLTISRVEAEDAATYYCQQWTSNPPTFGGGTKLEIK
chain: not shown
- Kd [4]: 2.08 nM

B10: T2.04 (anti-hu CD20/hu IL-12, hu IgG1 (2 + 1)) (bispecific antibody)
heavy: not shown
light: QIVLSQSPAILSASPGEKVTMTCRASSSVSYIHWFQQKPGSSPKPWIYATSNLASGVPVRFSGSGSGTSYSLTISRVEAEDAATYYCQQWTSNPPTFGGGTKLEIKGGGGSGGGGSGGGGSQIVLSQSPAILSASPGEKVTMTCRASSSVSYIHWFQQKPGSSPKPWIYATSNLASGVPVRFSGSGSGTSYSLTISRVEAEDAATYYCQQWTSNPPTFGGGTKLEIKRTVAAPSVFIFPPSDEQLKSGTASVVCLLNNFYPREAKVQWKVDNALQSGNSQESVTEQDSKDSTYSLSSTLTLSKADYEKHKVYACEVTHQGLSSPVTKSFNRGEC
chain: not shown
- Kd [5]: 7.58 nM

B11: T2.05 (anti-hu CD20/hu IL-12 mut2, hu IgG1 (2 + 1)) (bispecific antibody)
heavy: not shown
light: QIVLSQSPAILSASPGEKVTMTCRASSSVSYIHWFQQKPGSSPKPWIYATSNLASGVPVRFSGSGSGTSYSLTISRVEAEDAATYYCQQWTSNPPTFGGGTKLEIKGGGGSGGGGSGGGGSQIVLSQSPAILSASPGEKVTMTCRASSSVSYIHWFQQKPGSSPKPWIYATSNLASGVPVRFSGSGSGTSYSLTISRVEAEDAATYYCQQWTSNPPTFGGGTKLEIKRTVAAPSVFIFPPSDEQLKSGTASVVCLLNNFYPREAKVQWKVDNALQSGNSQESVTEQDSKDSTYSLSSTLTLSKADYEKHKVYACEVTHQGLSSPVTKSFNRGEC
chain: not shown
- Kd [5]: 2.88 nM
